# The supplement of paper PMC12042874
# ± gives the uncertainty stated by the source.
# Assay: amyloid nucleation score (Sup35N fusion, yeast selection) (log enrichment); library NNK2; higher = more nucleation; inactive = no reads after selection
# In short: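 Plasmid inserts were Illumina-sequenced at input and output from psi-negative yeast expressing Sup35N fused to peptides of 20 random codons. The yeast were induced with 100 μM copper sulfate for 24 hours and grown 7 days at 30°C on medium lacking adenine and uracil, and sequences with under 100 input reads were excluded. Nucleation score is the DiMSum log enrichment of output over input reads, centred on the mode score of non-aggregating sequences.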
row,Substance,amyloid nucleation score
1,SFRDDICWVRWGSL,0.251 ± 0.23
2,SFRDLDAAVEEV,-0.225 ± 0.48
3,SFRRSE,-0.388 ± 1
4,SFRTLVP,-0.905 ± 0.63
5,SFSHGSDAIGNVYCDNIVYK,inactive
6,SFSRSSAYVVHVLGYLEFRT,-0.004 ± 0.65
7,SFTFCARNSGLIGWSGDISS,4.07 ± 0.1
8,SFVAAEQIMASIEW,0.706 ± 0.29
9,SFVVWTPWLSPSYACPRQIF,-0.124 ± 0.76
10,SFWDRGFNIRQ,6.145 ± 0.038
11,SFYRCGLNYCNGTS,5.94 ± 0.06
12,SFYVNMSSFFRSLEEV,inactive
13,SGFEDVHAVVRFLIGVQYGG,-0.515 ± 1.1
14,SGFII,-1.18 ± 1.1
15,SGISKTGLYASYWGYLSGGK,-0.453 ± 0.27
16,SGLFFTHTFRKLVYRLRSTK,-1.08 ± 1.1
17,SGLGGGFFSIVCYTHISVRE,-0.069 ± 0.55
18,SGLIY,inactive
19,SGMGSSYLFQFGSMYAFDDC,0.636 ± 0.34
20,SGNIIFNRRMRRAALEWDIT,-0.125 ± 0.63
21,SGPVERFLILLIRCMNRLYV,-1.19 ± 0.44
22,SGQRQLCVWCVCVAGGRIKL,6.54 ± 0.076
23,SGSRVYFQTPN,inactive
24,SGTDDLCMVPLGYLLTMRLP,0.7 ± 0.39
25,SGVAPVIMYCAIVCGGLHM,8.517 ± 0.067

row,Substance,amyloid nucleation score
1,SGVHNYSARVG,-0.442 ± 0.46
2,SGWELYP,1.91 ± 0.11
3,SHCLNLGDLRVGYKSGM,inactive
4,SHCTLKNLV,-0.27 ± 1.1
5,SHFFAQPGNGMRWCVRIKVC,0.744 ± 0.8
6,SHLTNDVY,0.614 ± 0.43
7,SHSVKVMFNGLRVRL,-0.216 ± 0.63
8,SHTPLTG,-0.939 ± 1
9,SIANYGFVLNNHIRFFRSSG,2.32 ± 0.15
10,SICVRKYVKFWVWAMNTLFR,-0.174 ± 0.19
11,SIELNLPMFSIRVKMCSRGE,2.53 ± 0.15
12,SIFFC,2.09 ± 0.09
13,SIFKSIWDYLIYRSLVSHPH,-0.305 ± 1
14,SIFLREDVVFSDLLRWFR,5.572 ± 0.045
15,SIINLTVPAHPHLNNPLRRQ,4.76 ± 0.075
16,SIIYISWSVRHHYVKVG,-0.666 ± 0.46
17,SIKNHRDREILAMPGVSRSA,inactive
18,SILCLLNRLTFREYLMVFID,-0.583 ± 0.55
19,SINIYNFAQVSAFYCGLVEC,5.45 ± 0.078
20,SISCSADFVFNCSHGHNTVP,6.17 ± 0.069
21,SKDRCEVQLGKFTCLFMFDY,-1.47 ± 0.55
22,SKFYLKRKSDISYIYASPWR,1.94 ± 0.06
23,SKHWTCS,0.426 ± 0.57
24,SKIVYFSYYTQM,6.775 ± 0.049
25,SKLNAHVLAVFRLNEMNNHQ,3.48 ± 0.056

row,Substance,amyloid nucleation score
1,SKMICPHYK,5.69 ± 0.071
2,SKMVDLVVNPQVYCLRRVFW,2.9 ± 0.078
3,SKNSYSAHPKL,4.83 ± 0.06
4,SKRDGVSSMIM,4.25 ± 0.069
5,SKSAPC,0.39 ± 0.29
6,SKYGMFILGNRSNGDWFNMV,-0.673 ± 0.48
7,SKYLCRICDPMHLNLFCRWQ,4.11 ± 0.059
8,SLAPQMLPCHFSWILDPCC,-0.01 ± 1
9,SLAYRFRWKLGNKVKF,2.02 ± 0.1
10,SLCLGHYFHGTAYNWVVLYI,0.213 ± 0.8
11,SLDFAFRFFSICVICGQNAR,4.76 ± 0.082
12,SLDQFSFGC,0.027 ± 0.65
13,SLEGLLRPRKLVSCIDT,inactive
14,SLEGLSCFTLANCLLR,0.288 ± 0.24
15,SLEPYMFCSILINFYFFISV,3 ± 0.14
16,SLGLGDVWGGQAYRSAGA,0.2 ± 0.28
17,SLHLRRYIFNT,7.339 ± 0.059
18,SLHVTGWFTSDVVFNLWVDV,-0.145 ± 0.48
19,SLIFSDPHLVIALNFT,8.898 ± 0.061
20,SLIVAIRFTA,2.5 ± 0.24
21,SLLGRRIFWLCHEFMSSSLV,0.21 ± 1
22,SLLKNPASMCSNSIFCAYVG,8.708 ± 0.069
23,SLLSWRFVFCCMEYRVFLVV,inactive
24,SLLVDALR,0.513 ± 0.39
25,SLMFKRRK,0.317 ± 0.28

row,Substance,amyloid nucleation score
1,SLNVVMGAD,-1.15 ± 0.76
2,SLRMGFTKSVVARGAWRNWV,4.1 ± 0.057
3,SLTASCI,-0.471 ± 0.76
4,SLTFSGMP,inactive
5,SLVLV,0.803 ± 0.47
6,SLVTISFLGLFGSSSALVVA,-0.114 ± 1.1
7,SLWNIVRCRVENDSSGTQGF,-0.414 ± 0.5
8,SLWTNTSWSAVVQNNWYGTF,6.94 ± 0.054
9,SLYDGRVVRMYSRH,2.65 ± 0.1
10,SLYMFLVSALVQSYLLV,-1.4 ± 0.45
11,SLYVVQYCRSRYLVNCTDRV,0.129 ± 0.33
12,SMCGSNAFLDTDRDVRHDDF,-1.05 ± 0.78
13,SMEVAFSELSKVKRTTCVDY,inactive
14,SMFSRRNIQKSCFCYWNRLC,-0.418 ± 1.1
15,SMHGSNVIWESFILRQEHDV,-0.268 ± 0.31
16,SMISM,0.947 ± 0.3
17,SMKHRHSRMVTFGVLV,0.163 ± 0.28
18,SMMTVADP,-0.529 ± 0.79
19,SMRISHTGAQQDLDDCAMRK,0.635 ± 0.65
20,SMRVVCYWVLRW,3.16 ± 0.075
21,SMTDRFPSIIYRECILWVTW,-0.035 ± 0.76
22,SMYSSASMQWSDRFNILYEV,-0.291 ± 0.31
23,SMYVN,-0.384 ± 0.56
24,SNCFNCYLISNWKYVTVSLS,6.23 ± 0.067
25,SNDDIEIAKRSHMY,0.196 ± 0.54

row,Substance,amyloid nucleation score
1,SNEGWIKCWILYFVFGAWMI,-0.896 ± 0.79
2,SNFCFSTR,0.328 ± 0.32
3,SNGKYG,1.32 ± 0.26
4,SNGYYSNGPTLLHATTHVTV,-0.431 ± 0.64
5,SNKTIYKLFRIISPGYFGSS,-1.16 ± 1
6,SNNMFWFLNYYVGIYMWISP,-1.21 ± 0.75
7,SNSRKMCDMGKDDNGYKGTH,-0.483 ± 1
8,SNVLFWI,inactive
9,SNVSVYPTMWGRVVHRPYTW,0.032 ± 0.39
10,SNYGTGDGCCVGV,1.81 ± 0.099
11,SPAQCIGVCNRLKLYCST,0.262 ± 0.45
12,SPLEKATRFPTWEQCTVASM,0.405 ± 0.23
13,SPLHKKVYKRLRLTSDTRQI,-0.516 ± 0.55
14,SPLVLGFSRK,-1.02 ± 0.76
15,SPYVRWDKTNLIGWEWYRVE,-0.819 ± 0.43
16,SQISYEWDATIHQWLCKWFW,8.355 ± 0.031
17,SQSNMILYWADRF,5.33 ± 0.057
18,SQYFYMFWMSRATITNTIMP,-0.217 ± 0.74
19,SRACRFTFD,0.49 ± 0.42
20,SRAKMVFNFGAWFSRVCKN,2.42 ± 0.088
21,SRCGLLMVSPNAVPSGLAHR,1.18 ± 0.31
22,SRCIFVFYS,8.165 ± 0.059
23,SREGLCCNIVYA,-0.45 ± 0.37
24,SREYHSCKCQMLYMSQWSKG,-0.787 ± 0.55
25,SRGSSMMQIYFL,5.995 ± 0.059

row,Substance,amyloid nucleation score
1,SRGVS,-0.433 ± 0.43
2,SRHTIVTGRWLFRDYQSLLW,0.19 ± 1.1
3,SRHVLSKRFRWYT,0.196 ± 0.26
4,SRIGVLPDNVDTSAKLAYRL,6.95 ± 0.078
5,SRITCKDVMLL,-0.654 ± 0.49
6,SRKPSILNLRLALVSG,0.43 ± 0.33
7,SRLPLTSMTNSHSWA,0.363 ± 0.43
8,SRLTS,2.32 ± 0.066
9,SRNLGGNYGLGGWCNEEFRR,0.185 ± 0.65
10,SRSWTLKFRLGGNVKQYCTW,5.72 ± 0.091
11,SRTAWVDLPDCWQVVKFGSV,-0.025 ± 1.1
12,SRTWEFSFR,2.5 ± 0.12
13,SRVDNVSSAPAISAMGVWCG,1.14 ± 0.38
14,SRYVPMSFY,0.125 ± 0.79
15,SSAWYFSLGTDIAFDAGYSA,-0.108 ± 1.1
16,SSCVRLDELCAMMSMSWESQ,1.26 ± 0.38
17,SSFCNISAAGYFHIVMLRVV,-0.3 ± 0.5
18,SSFFVAPGSSLLLIRLLCSS,inactive
19,SSFQEC,-1.2 ± 0.62
20,SSFVIPSKR,-1.31 ± 0.78
21,SSFVNRWCEHYNGVVVSWLL,0.236 ± 0.17
22,SSGGIDQFGRESISHHWLC,-0.858 ± 0.76
23,SSKRVMKYRCDRWMADTCRK,0.201 ± 0.8
24,SSLGIRNCVGTSYVMSPIIV,0.178 ± 0.53
25,SSLVWLKMNGNGTKTVFMN,1.24 ± 0.14

row,Substance,amyloid nucleation score
1,SSNNMEIIYVFFLCREAQKL,-0.78 ± 1.1
2,SSQCRDVGEAGNHWCLSGSG,2.8 ± 0.14
3,SSQGLPDNGTRPLGWKYR,0.417 ± 0.4
4,SSQTKYQAFRVQATGVCAWM,-0.123 ± 0.23
5,SSRCFSVYSDIMYGTFLS,inactive
6,SSRDKILTSMKIWMLRFLAN,0.37 ± 0.51
7,SSSALEANINQSMEDIKEAF,-0.427 ± 1.1
8,SSSKRNSKDPSGLGLVCVE,0.795 ± 0.46
9,SSTHVPLRVFHGEIMWQQIL,-0.291 ± 1.1
10,SSTKFAHTFVHNKWVYSGFS,2.46 ± 0.11
11,SSWSLCIYLINRKKAEYVVI,0.462 ± 0.53
12,SSYESLCKIYLNFCQTD,6.761 ± 0.059
13,SSYKKYSVVN,-1.59 ± 0.48
14,SSYPFNDPEMLG,-1.09 ± 0.33
15,SSYSDLIQLNSNWMWCICLL,8.101 ± 0.06
16,STAFFSIIIVFFISTCRETP,-0.78 ± 0.63
17,STCIMDLSWCKVRRFGSTQV,-0.149 ± 0.79
18,STCLQD,-0.966 ± 1.1
19,STKITAESGR,0.502 ± 0.41
20,STNEWF,-1.06 ± 0.62
21,STRCCTRYVCRTAV,-0.158 ± 0.34
22,STRTSADRSFIIMVWCNIDL,3.62 ± 0.081
23,STVELEQYGSSARADYLVWR,0.58 ± 0.64
24,STVFYMNLQGVFRTVSWV,2.8 ± 0.18
25,STVICSVYFDVVASFDIVYI,1.39 ± 0.24
